Biological target: T1, SRC1a-M1234 (human, UniProt Q15788 1-1441, [35S]-labelled)
T1 construct: range 1-1441; also called mutant SRC1
Assay: GST pulldown, +/- 10^-6 M E2

T1 sequence (Q15788 other isoform, or with tags, fused parts or gaps limits assumed): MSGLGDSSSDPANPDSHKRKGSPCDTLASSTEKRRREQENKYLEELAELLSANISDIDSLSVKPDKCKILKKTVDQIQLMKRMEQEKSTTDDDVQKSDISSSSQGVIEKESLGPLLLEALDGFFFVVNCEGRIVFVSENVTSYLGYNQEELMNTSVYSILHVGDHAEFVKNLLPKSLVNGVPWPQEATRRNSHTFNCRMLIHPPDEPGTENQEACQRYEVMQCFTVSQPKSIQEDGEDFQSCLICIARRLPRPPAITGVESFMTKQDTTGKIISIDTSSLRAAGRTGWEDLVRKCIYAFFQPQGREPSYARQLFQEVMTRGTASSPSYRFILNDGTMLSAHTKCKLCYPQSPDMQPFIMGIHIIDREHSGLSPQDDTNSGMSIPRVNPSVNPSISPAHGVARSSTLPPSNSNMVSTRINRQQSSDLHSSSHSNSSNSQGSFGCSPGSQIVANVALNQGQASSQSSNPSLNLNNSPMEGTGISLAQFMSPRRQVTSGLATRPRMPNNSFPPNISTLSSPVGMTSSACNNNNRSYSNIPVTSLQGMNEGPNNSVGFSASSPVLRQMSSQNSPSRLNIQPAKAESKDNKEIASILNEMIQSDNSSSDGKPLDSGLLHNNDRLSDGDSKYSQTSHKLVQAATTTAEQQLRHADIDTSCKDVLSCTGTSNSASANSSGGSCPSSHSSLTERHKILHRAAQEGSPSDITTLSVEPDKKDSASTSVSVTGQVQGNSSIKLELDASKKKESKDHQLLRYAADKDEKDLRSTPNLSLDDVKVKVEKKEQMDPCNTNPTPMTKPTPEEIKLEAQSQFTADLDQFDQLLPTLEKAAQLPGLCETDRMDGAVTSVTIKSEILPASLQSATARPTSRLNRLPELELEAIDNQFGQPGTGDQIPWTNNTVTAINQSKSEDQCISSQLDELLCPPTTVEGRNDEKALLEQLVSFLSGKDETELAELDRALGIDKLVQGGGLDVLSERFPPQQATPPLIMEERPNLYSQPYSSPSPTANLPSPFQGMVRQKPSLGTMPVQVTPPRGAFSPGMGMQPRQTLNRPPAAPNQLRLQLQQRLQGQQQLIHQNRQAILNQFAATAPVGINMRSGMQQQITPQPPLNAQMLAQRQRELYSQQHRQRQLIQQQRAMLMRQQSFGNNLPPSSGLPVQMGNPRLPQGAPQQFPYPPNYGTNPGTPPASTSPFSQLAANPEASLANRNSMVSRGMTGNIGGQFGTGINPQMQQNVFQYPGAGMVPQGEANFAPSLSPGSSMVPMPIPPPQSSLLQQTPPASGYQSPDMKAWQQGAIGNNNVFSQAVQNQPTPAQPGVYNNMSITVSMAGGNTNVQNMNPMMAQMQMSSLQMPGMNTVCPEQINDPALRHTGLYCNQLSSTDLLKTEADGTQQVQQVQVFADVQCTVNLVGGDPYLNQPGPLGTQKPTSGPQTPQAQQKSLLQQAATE

B1: GST-AF2 (ligand binding domain of the mouse estrogen receptor fused to glutathione-S-transferase) (receptor, UniProt P19785 313-599, looked up)
chain: SLTADQMVSALLDAEPPMIYSEYDPSRPFSEASMMGLLTNLADRELVHMINWAKRVPGFGDLNLHDQVHLLECAWLEILMIGLVWRSMEHPGKLLFAPNLLLDRNQGKCVEGMVEIFDMLLATSSRFRMMNLQGEEFVCLKSIILLNSGVYTFLSSTLKSLEEKDHIHRVLDKITDTLIHLMAKAGLTLQQQHRRLAQLLLILSHIRHMSNKGMEHLYNMKCKNVVPLYDLLLEMLDAHRLHAPASRMGVPPEEPSQTQLATTSSTSAHSLQTYYIPPEAEGFPNTI
notes: range 313-599; Loaded on glutathione beads; tested with or without 10^-6 M E2; also called ER LBD; not shown: glutathione-S-transferase (GST)
B1: no binding.
